Experimental data taken from paper PMC10140165, “Cryo-EM reveals the membrane-binding phenomenon of EspB, a virulence factor of the mycobacterial type VII secretion system” (The Journal of Biological Chemistry, 2023).
Several values for one entry are separate records, joined by “and”; a condition that tells them apart may be missing. Equal entries are not always repeated.

Target: the molecule itself
Experiment: cryo-EM 2D class averages

B1: EspB_(1–332) (domain or fragment)
chain: MTQSQTVTVDQQEILNRANEVEAPMADPPTDVPITPCELTAAKNAAQQLVLSADNMREYLAAGAKERQRLATSLRNAAKAYGEVDEEAATALDNDGEGTVQAESAGAVGGDSSAELTDTPRVATAGEPNFMDLKEAARKLETGDQGASLAHFADGWNTFNLTLQGDVKRFRGFDNWEGDAATACEASLDQQRQWILHMAKLSAAMAKQAQYVAQLHVWARREHPTYEDIVGLERLYAENPSARDQILPVYAEYQQRSEKVLTEYNNKAALEPVNPPKPPPAIKIDPPPPPQEQGLIPGFLMPPSDGSGVTPGTGMPAAPMVPPTGSPGGGLP
  stoichiometry N: 7 and 6
